# Reference: the supplement of paper PMC10724198
# ± gives the standard deviation of the averaged measurements.
# How the values were obtained:
# Saccharomyces cerevisiae [1] = experiment: protein stability index of tFT-peptide fusion (C-terminal peptide) (PSI (0-1 scale)); higher = more stable (slower turnover); conditions: genetic background: wild type; temperature: 30 C
# Saccharomyces cerevisiae [2] = experiment: as above
# Method: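 MPS profiling in S. cerevisiae of the tFT-X12 degron library: putative degron peptides plus stable controls, 12 aa, fused to the C-terminus of a sfGFP-mCherry timer. Cells are FACS-sorted into 8 mCherry/sfGFP bins and deep-sequenced. PSI runs from 0 (unstable) to 1 (stable). Backgrounds are wild type, das1Δ and doa10Δ at 30 °C, and wild type, das1Δ, cdc34-1 and cdc53-1 at 37 °C; 2-3 technical replicates each.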
# [3] = genetic background: cdc34-1, temperature: 37 C
# [4] = genetic background: cdc53-1, temperature: 37 C
# [5] = genetic background: das1 deletion, temperature: 30 C
# [6] = genetic background: das1 deletion, temperature: 37 C
# [7] = genetic background: doa10 deletion, temperature: 30 C
# [8] = genetic background: wild type, temperature: 30 C
# [9] = genetic background: wild type, temperature: 37 C
# 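Also: PSI is a weighted mean of sequencing reads over stability bins, variants kept only with over 10 reads, mCherry proximal and sfGFP distal, peptide attached via GGGS linker.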
Sequence,protein stability index (Saccharomyces cerevisiae [1]),protein stability index (Saccharomyces cerevisiae [2]; [3]),protein stability index (Saccharomyces cerevisiae [2]; [4]),protein stability index (Saccharomyces cerevisiae [2]; [5]),protein stability index (Saccharomyces cerevisiae [2]; [6]),protein stability index (Saccharomyces cerevisiae [2]; [7]),protein stability index (Saccharomyces cerevisiae [2]; [8]),protein stability index (Saccharomyces cerevisiae [2]; [9])
NLTAIIYTLVVD,0.31 ± 0.015,0.2313 ± 0.0018,0.466 ± 0.23,0.218 ± 0.032,0.444 ± 0.018,0.197 ± 0.016,0.225 ± 0.028,0.3944 ± 0.00021
CFTLSLCLAFFF,0.377 ± 0.014,0.41 ± 0.026,0.455 ± 0.013,0.403 ± 0.03,0.433 ± 0.0072,0.324 ± 0.017,0.334 ± 0.026,0.4091 ± 0.0024
PFLCLPFLLVSR,0.41 ± 0.034,0.38 ± 0.022,0.4056 ± 0.0025,0.35 ± 0.029,0.49 ± 0.0032,0.467 ± 0.017,0.363 ± 0.027,0.47142 ± 0.0004
LLLIGISFLIFY,0.352 ± 0.05,0.184 ± 0.048,0.287 ± 0.0035,0.208 ± 0.029,0.385 ± 0.008,0.199 ± 0.025,0.21 ± 0.025,0.335 ± 0.052
LFTSGNSLVLVH,0.365 ± 0.0042,0.21126 ± 0.00018,0.257 ± 0.02,0.236 ± 0.037,0.3909 ± 0.00093,0.202 ± 0.0086,0.25 ± 0.034,0.362 ± 0.0076
NAPSAIQKNKKC,0.433 ± 0.081,0.696 ± 0.016,0.6886 ± 0.0037,0.649 ± 0.036,0.71782 ± 0.00039,0.211 ± 0.016,0.281 ± 0.037,0.515 ± 0.08
FIICAASWFFLG,0.224 ± 0.025,0.456 ± 0.025,0.624 ± 0.032,0.474 ± 0.036,0.62 ± 0.02,0.109 ± 0.014,0.127 ± 0.016,0.225 ± 0.079
ISFQFFVCLCAR,0.234 ± 0.019,0.13 ± 0.0054,0.181 ± 0.0063,0.159 ± 0.022,0.289 ± 0.0036,0.145 ± 0.005,0.161 ± 0.018,0.253 ± 0.0092
LFPVFFPLFAPA,0.322 ± 0.03,0.285 ± 0.029,0.336 ± 0.035,0.266 ± 0.034,0.404 ± 0.018,0.206 ± 0.013,0.271 ± 0.018,0.36504 ± 0.00017
LFAIFLVVLLFR,0.219 ± 0.054,0.106 ± 0.016,0.089 ± 0.0072,0.195 ± 0.03,0.273 ± 0.0081,0.297 ± 0.0092,0.201 ± 0.028,0.2089 ± 0.0002
VFIVVEFRLSLY,0.231 ± 0.073,0.122 ± 0.019,0.243 ± 0.074,0.174 ± 0.038,0.3023 ± 0.0029,0.1496 ± 0.0014,0.17 ± 0.0089,0.263 ± 0.0037
CSPAFRPIVFVL,0.225 ± 0.013,0.2771 ± 0.00097,0.2732 ± 0.00067,0.301 ± 0.026,0.407 ± 0.013,0.1802 ± 0.00032,0.163 ± 0.016,0.176 ± 0.0079
YVIGLLFVVSGV,0.39 ± 0.0085,0.265 ± 0.013,0.366 ± 0.025,0.258 ± 0.044,0.465 ± 0.029,0.229 ± 0.0076,0.251 ± 0.033,0.385 ± 0.03
DYRCWCAILVSS,0.2611 ± 0.00049,0.162 ± 0.0075,0.187 ± 0.0085,0.207 ± 0.029,0.3345 ± 0.0016,0.146 ± 0.013,0.172 ± 0.032,0.246 ± 0.013
SSCLPAPPPLPL,0.4965 ± 0.0048,0.6491 ± 0.003,0.747 ± 0.025,0.682 ± 0.042,0.698 ± 0.0084,0.677 ± 0.0075,0.672 ± 0.021,0.701 ± 0.017
SFTPPRVCLCFS,0.3999 ± 0.0022,0.465 ± 0.04,0.503 ± 0.008,0.319 ± 0.029,0.5205 ± 0.0047,0.2778 ± 0.002,0.3 ± 0.024,0.496 ± 0.02
FGVLFFVFVFVC,0.177 ± 0.024,0.149 ± 0.015,0.243 ± 0.051,0.193 ± 0.02,0.322 ± 0.011,0.112 ± 0.021,0.129 ± 0.022,0.203 ± 0.03
GVFLVWWVGFWV,0.374 ± 0.057,0.257 ± 0.025,0.401 ± 0.021,0.25 ± 0.035,0.431 ± 0.014,0.223 ± 0.0082,0.238 ± 0.029,0.455 ± 0.047
RTALSSPRPALL,0.7799 ± 0.006,0.6896 ± 0.0052,0.7635 ± 0.0053,0.701 ± 0.017,0.75 ± 0.0094,0.7131 ± 0.0061,0.723 ± 0.011,0.733 ± 0.0077
RLFLLIECSSGF,0.395 ± 0.045,0.451 ± 0.005,0.491 ± 0.0068,0.31 ± 0.046,0.493 ± 0.024,0.271 ± 0.0039,0.293 ± 0.035,0.508 ± 0.019

Sequence,protein stability index (Saccharomyces cerevisiae [1]),protein stability index (Saccharomyces cerevisiae [2]; [3]),protein stability index (Saccharomyces cerevisiae [2]; [4]),protein stability index (Saccharomyces cerevisiae [2]; [5]),protein stability index (Saccharomyces cerevisiae [2]; [6]),protein stability index (Saccharomyces cerevisiae [2]; [7]),protein stability index (Saccharomyces cerevisiae [2]; [8]),protein stability index (Saccharomyces cerevisiae [2]; [9])
VFFCLFVLFLSG,0.423 ± 0.18,0.302 ± 0.0038,0.397 ± 0.0068,0.264 ± 0.043,0.437 ± 0.0073,0.251 ± 0.0072,0.282 ± 0.015,0.408 ± 0.021
FLFLLLFLLLCC,0.407 ± 0.0033,0.467 ± 0.0069,0.488 ± 0.0017,0.377 ± 0.03,0.534 ± 0.049,0.349 ± 0.011,0.318 ± 0.033,0.4634 ± 0.00047
NQIIRLIVGLLC,0.291 ± 0.016,0.55 ± 0.039,0.601 ± 0.017,0.486 ± 0.017,0.5867 ± 0.0055,0.193 ± 0.014,0.224 ± 0.011,0.355 ± 0.02
CMIACYALLRLL,0.11 ± 0.039,0.176 ± 0.023,0.256 ± 0.011,0.346 ± 0.036,0.477 ± 0.0079,0.0799 ± 0.021,0.0777 ± 0.016,0.0702 ± 0.0087
HGVRLHTVWVGG,0.4918 ± 0.0038,0.55 ± 0.029,0.559 ± 0.026,0.413 ± 0.011,0.597 ± 0.0065,0.347 ± 0.0076,0.4 ± 0.033,0.5437 ± 0.005
WFFPVSPPVMAS,0.288 ± 0.013,0.181 ± 0.027,0.1945 ± 0.00051,0.202 ± 0.032,0.3 ± 0.013,0.175 ± 0.004,0.211 ± 0.026,0.265 ± 0.0075
SIFWWWLVFILG,0.418 ± 0.085,0.469 ± 0.0093,0.4759 ± 0.0034,0.362 ± 0.02,0.502 ± 0.008,0.366 ± 0.018,0.368 ± 0.026,0.462 ± 0.011
LSTPPLLPTPPS,0.7113 ± 0.0049,0.672 ± 0.029,0.7296 ± 0.0032,0.664 ± 0.012,0.7182 ± 0.0062,0.672 ± 0.029,0.669 ± 0.014,0.6988 ± 0.0048
CKRWGVVSYVFV,0.493 ± 0.017,0.601 ± 0.069,0.6545 ± 0.0054,0.464 ± 0.025,0.655 ± 0.0067,0.418 ± 0.025,0.441 ± 0.024,0.61 ± 0.0099
AFRFFWFFFFTS,0.445 ± 0.03,0.536 ± 0.066,0.619 ± 0.042,0.466 ± 0.024,0.603 ± 0.035,0.446 ± 0.0062,0.426 ± 0.017,0.557 ± 0.018
GILLLLISRVVF,0.371 ± 0.011,0.278 ± 0.032,0.373 ± 0.025,0.229 ± 0.047,0.469 ± 0.0056,0.197 ± 0.039,0.227 ± 0.021,0.413 ± 0.0093
DDVRFLLWGLCC,0.324 ± 0.027,0.48 ± 0.022,0.459 ± 0.018,0.398 ± 0.024,0.5595 ± 0.0051,0.183 ± 0.0027,0.218 ± 0.019,0.3644 ± 0.0027
SFLCGCVVCWLW,0.449 ± 0.04,0.464 ± 0.063,0.547 ± 0.039,0.397 ± 0.026,0.552 ± 0.011,0.4 ± 0.027,0.396 ± 0.014,0.505 ± 0.0073
LFLLSHYALCFY,0.3967 ± 0.0035,0.523 ± 0.0055,0.53 ± 0.018,0.441 ± 0.018,0.593 ± 0.028,0.333 ± 0.0045,0.336 ± 0.017,0.527 ± 0.012
VFLLFFFGLFVF,0.415 ± 0.041,0.348 ± 0.02,0.385 ± 0.0091,0.295 ± 0.037,0.418 ± 0.025,0.356 ± 0.043,0.314 ± 0.007,0.414 ± 0.035
VVCLCEYRLHIF,0.0917 ± 0.047,0.203 ± 0.029,0.274 ± 0.031,0.214 ± 0.034,0.399 ± 0.011,0.0658 ± 0.017,0.0733 ± 0.033,0.0928 ± 0.0073
CSVPLGVFAIVV,0.48 ± 0.019,0.463 ± 0.0057,0.471 ± 0.032,0.382 ± 0.028,0.514 ± 0.0019,0.347 ± 0.0035,0.365 ± 0.038,0.4894 ± 0.0029
SVFGLLSVCFFY,0.472 ± 0.019,0.488 ± 0.032,0.5669 ± 0.002,0.385 ± 0.029,0.604 ± 0.0077,0.358 ± 0.016,0.398 ± 0.018,0.549 ± 0.022
GGCYAGVAMRLI,0.76 ± 0.015,0.653 ± 0.02,0.729 ± 0.026,0.644 ± 0.021,0.714 ± 0.042,0.632 ± 0.014,0.62 ± 0.027,0.681 ± 0.025
